The values below come from patent US20240368260A1 (INSTITUT NATIONAL DE LA SANTE ET DE LA RECHERCHE MEDICALE, published 2024).

Test [1] concerns the target T1, recombinant human βIG-H3 (human, UniProt Q15582 24-683).
T1 construct: Bought recombinant protein; also called rhβIG-H3; rhbIG-H3
T1 sequence (looked up): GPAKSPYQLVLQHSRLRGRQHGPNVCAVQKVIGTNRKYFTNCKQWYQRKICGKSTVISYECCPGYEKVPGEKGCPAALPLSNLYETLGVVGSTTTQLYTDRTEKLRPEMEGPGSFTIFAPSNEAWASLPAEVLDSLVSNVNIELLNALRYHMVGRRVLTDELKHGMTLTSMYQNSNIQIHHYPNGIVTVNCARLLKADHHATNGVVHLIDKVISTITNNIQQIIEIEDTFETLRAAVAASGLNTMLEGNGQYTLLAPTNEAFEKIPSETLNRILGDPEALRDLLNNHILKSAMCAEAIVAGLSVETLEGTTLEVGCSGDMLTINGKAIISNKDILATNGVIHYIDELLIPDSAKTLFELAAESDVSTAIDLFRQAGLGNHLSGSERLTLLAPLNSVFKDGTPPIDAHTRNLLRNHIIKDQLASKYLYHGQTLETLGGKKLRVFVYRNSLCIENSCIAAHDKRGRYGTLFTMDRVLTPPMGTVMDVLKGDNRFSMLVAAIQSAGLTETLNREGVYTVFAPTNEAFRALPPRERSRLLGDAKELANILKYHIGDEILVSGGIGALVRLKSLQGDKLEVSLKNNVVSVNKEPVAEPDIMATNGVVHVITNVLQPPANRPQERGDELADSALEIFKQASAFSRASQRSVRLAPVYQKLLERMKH
In words: SPR single cycle kinetics, mAb captured via anti-human IgG (Fc) on CM5, hβIG-H3 5-100 nM as analyte, 1:1 model; SCK2 Fc2. Here is the method: (§1) Anti-Human IgG (Fc) antibody is chemically grafted on a CM5 sensorchip using amine coupling according to the Cytivia 22064888AF notice. Briefly, surface is first activated by injection of a NHS-EDC mixture. Then, several injections (3 on the 10 available on the kit) of Anti-Human IgG (25 μg/ml in immobilization buffer) adjusting the contact time are performed. Finally, the surfaces are deactivated with ethanolamine 1M pH 8.5.
(§2) A negative control Ab is immobilized on sensor flowcell 1 (Fc 1) and positive control (chimeric 18B3 mAB) on Fc 2. 18B3 variants Abs are immobilized on Fc3 and Fc4:
(§3) Injection of increasing concentrations (5; 10; 25; 50; 100 nM) of antigen (hβIG-H3) during 180 s is performed on each flowcell. Short dissociations are performed in RB between each antigen concentration. After injection of the highest antigen concentration (100 nM), a dissociation in RB is recorded during 3600 s. [0348] Three similar cycles with five injections of RB are carried out before the cycle of Antigen in order to perform double subtraction procedure (Blank run). [0349] Three similar cycles with five injection of RB and a dissociation time of 600 s are performed before the blank runs in order to stabilize the system (Startup run).

Test [2] has as its target T1, recombinant human βIG-H3. In words: SPR single cycle kinetics, mAb captured via anti-human IgG (Fc) on CM5, hβIG-H3 5-100 nM as analyte, 1:1 model; SCK1 Fc2. The method, then: as §1, §2, §3
Test [3] concerns the target T1, recombinant human βIG-H3. In words: direct ELISA on coated rhβIG-H3, anti-human IgG-HRP. (In general: An ELISA detects its analyte on a solid surface through an enzyme-linked reagent.)
Test [4] concerns the target T1, recombinant human βIG-H3. As to the kind of experiment: SPR Biacore T200, antibody captured via anti-human IgG, rhbIG-H3 as analyte, 1:1 fit, mean of n=3. The method, then:
(§4) The assays were conducted using Biacore T200 instrument. It was performed in 2 steps: [0324] The first step, called suitability test, was aiming at determining the optimal conditions to run the assay: here, best sensor chip and running buffer conditions are assessed to defined best signal/noise ratio. [0325] The second step is the run itself that was performed in triplicate to ensure reproducibility and robustness of the results.
(§5) For the first step, 2 sensors and various buffer conditions were assessed using the parental and Chimeric 18B3 mAbs as a reference. It was then defined that sensor Chip C1 was the most appropriate, and buffer containing 300 mM NaCl and 0.25 mg/mL BSA was reducing the non-specific binding and increased the signal.
(§6) Rate constants (kₐ, kd) and equilibrium dissociation constants (KD) of rhbIG-H3 interaction with six antibodies determined by SPR. Experimental data were fitted to a 1:1 binding model. Listed are mean values ±SD of n=3 independent experiments.
In general terms: Surface plasmon resonance follows binding to a sensor surface in real time, without labels.

Test [5] has as its target T1, recombinant human βIG-H3. As to the kind of experiment: SPR Biacore T200, antibody captured via anti-mouse IgG, rhbIG-H3 as analyte, 1:1 fit, mean of n=3. The method, then:
as §4, §5, §6

The target in test [6] is T1, recombinant human βIG-H3. As to the kind of experiment: SPR single cycle kinetics, mAb captured via anti-human IgG (Fc) on CM5, hβIG-H3 5-100 nM as analyte, 1:1 model; SCK2 Fc3. The method, then: as §1, §2, §3
Test [7] addresses T1, recombinant human βIG-H3. As to the kind of experiment: SPR single cycle kinetics, mAb captured via anti-human IgG (Fc) on CM5, hβIG-H3 5-100 nM as analyte, 1:1 model; SCK1 Fc3. Here is the method:
as §1, §2, §3

Test [8] deals with T1, recombinant human βIG-H3. As to the kind of experiment: direct ELISA on coated rhβIG-H3.

B1: Chimeric huIgG1 k 18B3 (antibody, V domains shown)
VH: EVQLVESGGGLVKPGGSLKLSCAASGFTFSDYYMYWVRQTPEKRLEWVATISDGGIYTYYPDSVKGRFTISRDSAKNNLYLQMTSLKSDDTAMYYCVRGWDRYDSWFACWGQGTLVTVSA
VL: DIVMSQSPSSLVVSAGEKVTMTCKSSQSLLYSSNQKNYLAWYRQKPGQSPKLLIYWASTRESGVPDRFTGSGSGTDFTLTISSVKAEDLAVYYCQQYYRYPYTFGGGTKLEIKR
notes: also called ch18B3; 18B3 chim
One may read the Kd as a measure of binding affinity in units of concentration. Usually koff stands for the first-order rate constant of dissociation. For orientation: kon means the second-order rate constant of association. With B1, in the test with recombinant human βIG-H3 [1], the Kd came to 0.0854 nM, the koff amounted to 0.00016 s⁻¹ and the kon came to 1.87e+06 M⁻¹ s⁻¹. In addition, in the test with recombinant human βIG-H3 [2], the dissociation constant (Kd) was 0.0627 nM, the koff stood at 0.00013 s⁻¹ and the kon was 2.06e+06 M⁻¹ s⁻¹. The “ELISA Titer” value with recombinant human βIG-H3 [3] turned out to be 0.03 µg/mL. Also, in the test with recombinant human βIG-H3 [4], the Kd stood at 0.187 nM, the dissociation rate constant (koff) stood at 0.000247 s⁻¹ and the kon amounted to 1.32e+06 M⁻¹ s⁻¹.

B2: Mouse monoclonal 18B3 (antibody, V domains shown)
VH: EVQLVESGGGLVKPGGSLKLSCAASGFTFSDYYMYWVRQTPEKRLEWVATISDGGIYTYYPDSVKGRFTISRDSAKNNLYLQMTSLKSDDTAMYYCVRGWDRYDSWFACWGQGTLVTVSA
VL: DIVMSQSPSSLVVSAGEKVTMTCKSSQSLLYSSNQKNYLAWYRQKPGQSPKLLIYWASTRESGVPDRFTGSGSGTDFTLTISSVKAEDLAVYYCQQYYRYPYTFGGGTKLEIK
notes: Mouse IgG1/k from hybridoma; also called m18B3; murine 18B3 mAb
With B2, in the test with recombinant human βIG-H3 [5], the Kd was 0.411 nM, the koff amounted to 0.000234 s⁻¹ and the kon came out at 572000 M⁻¹ s⁻¹.

B3: Humanized 18B3 B (H330-V1/L41-V1) (antibody, human IgG1, kappa, V domains shown)
VH: QVQLVESGGGVVQPGGSLRLSCAASGFTFSDYYMYWVRQAPGKGLEWVATISDGGIYKYYADSVKGRFTISRDSSKNTLYLQMNSLRAEDTAVYYCVRGWDRYDSWFACWGQGTTVTVSS
VL: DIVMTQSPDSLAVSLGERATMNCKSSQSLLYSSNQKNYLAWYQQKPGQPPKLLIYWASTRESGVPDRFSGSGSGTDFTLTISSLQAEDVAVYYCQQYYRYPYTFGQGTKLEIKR
notes: also called H-330/L-41; H330/L41
Regarding B3, the “ELISA Titer” value with recombinant human βIG-H3 [3] was 0.047 µg/mL. Also, in the test with recombinant human βIG-H3 [4], the Kd was 0.535 nM, the koff was determined as 0.000659 s⁻¹ and the kon worked out at 1.23e+06 M⁻¹ s⁻¹.

B4: Humanized 18B3 E (H330-V1/L228-V1) (antibody, human IgG1, kappa, V domains shown)
VH: QVQLVESGGGVVQPGGSLRLSCAASGFTFSDYYMYWVRQAPGKGLEWVATISDGGIYKYYADSVKGRFTISRDSSKNTLYLQMNSLRAEDTAVYYCVRGWDRYDSWFACWGQGTTVTVSS
VL: DIVMTQSPLSLPVTPGEPASMSCRSSQSLLYSSNQKNYLAWYLQKPGQSPQLLIYWGSTRESGVPDRFSGSGSGTDFTLKISRVEAEDVGVYYCQQYYRYPYTFGQGTKLEIKR
notes: also called H330/L228
As for B4, the “ELISA Titer” value in the test with recombinant human βIG-H3 [3] is 0.04 µg/mL. Besides, in the test with recombinant human βIG-H3 [4], the Kd came to 0.476 nM, the koff was 0.000583 s⁻¹ and the kon worked out at 1.23e+06 M⁻¹ s⁻¹.

B5: Humanized 18B3 D (H311-V1/L228-V1) (antibody, human IgG1, kappa, V domains shown)
VH: QVQLVESGGGLVKPGGSLRLSCAASGFTFSDYYMYWIRQAPGKGLEWVATISDGGIYIYYADSVKGRFTISRDSAKNSLYLQMNSLRAEDTAVYYCVRGWDRYDSWFACWGQGTTVTVSS
VL: DIVMTQSPLSLPVTPGEPASMSCRSSQSLLYSSNQKNYLAWYLQKPGQSPQLLIYWGSTRESGVPDRFSGSGSGTDFTLKISRVEAEDVGVYYCQQYYRYPYTFGQGTKLEIKR
notes: also called H311/L228
As for B5, in the test with recombinant human βIG-H3 [3], the “ELISA Titer” value was determined as 0.046 µg/mL. Also, in the test with recombinant human βIG-H3 [4], the Kd was 0.49 nM, the koff stood at 0.000707 s⁻¹ and the kon is 1.45e+06 M⁻¹ s⁻¹.

B6: 18B3 H330-V1.2/L41-V1 (antibody, human IgG1, kappa, V domains shown)
VH: QVQLVESGGGVVQPGGSLRLSCAASGFTFSDYYMYWVRQAPGKGLEWVATISDGGIYKYYADSVKGRFTISRDSSKNTLYLQMNSLRAEDTAVYYCVRGWDRYDSWFASWGQGTTVTVSS
VL: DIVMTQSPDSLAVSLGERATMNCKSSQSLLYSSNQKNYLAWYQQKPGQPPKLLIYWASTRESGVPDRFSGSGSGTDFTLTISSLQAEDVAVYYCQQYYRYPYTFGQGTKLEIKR
notes: also called H-330/L-41 V1.2; H330C102S/L-41
As to B6, in the test with recombinant human βIG-H3 [6], the dissociation constant Kd was determined as 0.169 nM, the koff was determined as 0.000659 s⁻¹ and the kon came out at 3.9e+06 M⁻¹ s⁻¹. Moreover, in the test with recombinant human βIG-H3 [7], the Kd is 0.124 nM, the koff amounted to 0.000798 s⁻¹ and the kon amounted to 6.46e+06 M⁻¹ s⁻¹. Also, in the test with recombinant human βIG-H3 [3], the “ELISA Titer” value came out at 0.0038 µg/mL.

B7: Humanized 18B3 A (H311-V1/L41-V1) (antibody, human IgG1, kappa, V domains shown)
VH: QVQLVESGGGLVKPGGSLRLSCAASGFTFSDYYMYWIRQAPGKGLEWVATISDGGIYIYYADSVKGRFTISRDSAKNSLYLQMNSLRAEDTAVYYCVRGWDRYDSWFACWGQGTTVTVSS
VL: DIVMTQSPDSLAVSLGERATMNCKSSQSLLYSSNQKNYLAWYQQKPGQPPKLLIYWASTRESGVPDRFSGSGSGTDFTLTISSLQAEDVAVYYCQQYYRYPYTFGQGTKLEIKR
notes: also called H311/L41
Take B7: the “ELISA Titer” value with recombinant human βIG-H3 [3] came out at 0.041 µg/mL. Also, in the test with recombinant human βIG-H3 [4], the Kd is 0.482 nM, the off-rate (koff) was determined as 0.000726 s⁻¹ and the kon is 1.5e+06 M⁻¹ s⁻¹.

B8: H-169/L-315 (antibody, human IgG1, kappa, V domains shown)
VH: QVQLVQSGAEVKKPGSSVKVSCKASGFTFSDYYMYWVRQAPGQGLEWVGTISDGGIYAYYAQKVQGRFTITRDSSTSTLYLELSSLRSEDTAVYYCVRGWDRYDSWFACWGQGTTVTVSS
VL: EIVMTQSPATLSVSPGERATMSCRASQSLLYSSNQKNYLAWYQQKPGQAPRLLIYWASTRETGIPARFSGSGSGTEFTLTISSLQSEDFAVYYCQQYYRYPYTFGQGTKLEIKR
As to B8, in the test with recombinant human βIG-H3 [8], the binding result is given as “binds”.

B9: H-169/L-41 (antibody, human IgG1, kappa, V domains shown)
VH: QVQLVQSGAEVKKPGSSVKVSCKASGFTFSDYYMYWVRQAPGQGLEWVGTISDGGIYAYYAQKVQGRFTITRDSSTSTLYLELSSLRSEDTAVYYCVRGWDRYDSWFACWGQGTTVTVSS
VL: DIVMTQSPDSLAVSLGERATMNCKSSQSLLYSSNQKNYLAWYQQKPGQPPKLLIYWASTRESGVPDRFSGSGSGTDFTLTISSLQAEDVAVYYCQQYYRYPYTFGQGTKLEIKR
In the case of B9, the binding result in the test with recombinant human βIG-H3 [8] is “binds”.

B10: H-311/L-315 (antibody, human IgG1, kappa, V domains shown)
VH: QVQLVESGGGLVKPGGSLRLSCAASGFTFSDYYMYWIRQAPGKGLEWVATISDGGIYIYYADSVKGRFTISRDSAKNSLYLQMNSLRAEDTAVYYCVRGWDRYDSWFACWGQGTTVTVSS
VL: EIVMTQSPATLSVSPGERATMSCRASQSLLYSSNQKNYLAWYQQKPGQAPRLLIYWASTRETGIPARFSGSGSGTEFTLTISSLQSEDFAVYYCQQYYRYPYTFGQGTKLEIKR
On to B10, for which the binding result with recombinant human βIG-H3 [8] was “binds”.

B11: H-169/L-228 (antibody, human IgG1, kappa, V domains shown)
VH: QVQLVQSGAEVKKPGSSVKVSCKASGFTFSDYYMYWVRQAPGQGLEWVGTISDGGIYAYYAQKVQGRFTITRDSSTSTLYLELSSLRSEDTAVYYCVRGWDRYDSWFACWGQGTTVTVSS
VL: DIVMTQSPLSLPVTPGEPASMSCRSSQSLLYSSNQKNYLAWYLQKPGQSPQLLIYWGSTRESGVPDRFSGSGSGTDFTLKISRVEAEDVGVYYCQQYYRYPYTFGQGTKLEIKR
Turning to B11, the binding result with recombinant human βIG-H3 [8] is “binds”.

B12: H-330/L-315 (antibody, human IgG1, kappa, V domains shown)
VH: QVQLVESGGGVVQPGGSLRLSCAASGFTFSDYYMYWVRQAPGKGLEWVATISDGGIYKYYADSVKGRFTISRDSSKNTLYLQMNSLRAEDTAVYYCVRGWDRYDSWFACWGQGTTVTVSS
VL: EIVMTQSPATLSVSPGERATMSCRASQSLLYSSNQKNYLAWYQQKPGQAPRLLIYWASTRETGIPARFSGSGSGTEFTLTISSLQSEDFAVYYCQQYYRYPYTFGQGTKLEIKR
For B12, the binding result in the test with recombinant human βIG-H3 [8] is given as “binds”.
